Molecular target: the molecule itself
Test: SEC-MALS; Superdex S200 10/300 GL increase, 20 mM Tris-HCl pH 7.5, 150 mM NaCl, 25 °C; protein pre-incubated at 65 °C for 10 min, 100 µl injected at 1.5 mg/ml

B1: recombinant aDHS-C-His (enzyme, Sulfolobus solfataricus, UniProt Q97ZF1 1-312, looked up)
chain: MINREDLLKNPVEDITLSDLKKYNDIVSVFDKIYGFSSEGIVNGSKILKEMIKNADLRFLSFTANLVSTGLRGLFADLIKKGYFNIVVTTGGTIDHDLARSFGGVYYKGSFDIDDTMLKDLEIHRLGNVLVPFESYGKVIEDVVRKFLPEITKDRKEISAYELLWEFGKRITDSNSILRAAYDKNVPIIVPGILDGSFGTNLFIQSQFLNFRINLFEDMRLIKDLIFSSKKSGALIIGGGISKHHTIWWNQFKDGLNYAIYITTAQEYDGSLSGAKPREAISWNKIRPDAKHVTIYGDATIIVPILAASLLS
notes: deoxyhypusine synthase, Sulfolobus solfataricus P2, ORF SSO0967, amplified by PCR from genomic DNA; source: E. coli BL21 (DE3) (pQE-70-DHS-C-His), purified (Ni-NTA); not shown: His-tag, C-terminal, kept
stoichiometry N: 4

Reference: PMC6105217, “Modification of translation factor aIF5A from Sulfolobus solfataricus” (Extremophiles, 2018)
